{
  "source": "paper PMC4333404",
  "about": "“Bcl2 inhibits recruitment of Mre11 complex to DNA double-strand breaks in response to high-linear energy transfer radiation”",
  "binders": {"B1": {"name": "TP423/TP424 3' overhanging duplex (dsDNA)", "DNA 1": "CTGCAGGGTTTTTGTTCCAGTCTGTAGCACTGTGTAAGACAGGCCAGATC", "DNA 2": "CACAGTGCTACAGACTGGAACAAAAACCCTGCAGTACTCTACTCATCTC"}},
  "target": "T1, Mre11 (UniProt P49959 1-708)",
  "T1 sequence": "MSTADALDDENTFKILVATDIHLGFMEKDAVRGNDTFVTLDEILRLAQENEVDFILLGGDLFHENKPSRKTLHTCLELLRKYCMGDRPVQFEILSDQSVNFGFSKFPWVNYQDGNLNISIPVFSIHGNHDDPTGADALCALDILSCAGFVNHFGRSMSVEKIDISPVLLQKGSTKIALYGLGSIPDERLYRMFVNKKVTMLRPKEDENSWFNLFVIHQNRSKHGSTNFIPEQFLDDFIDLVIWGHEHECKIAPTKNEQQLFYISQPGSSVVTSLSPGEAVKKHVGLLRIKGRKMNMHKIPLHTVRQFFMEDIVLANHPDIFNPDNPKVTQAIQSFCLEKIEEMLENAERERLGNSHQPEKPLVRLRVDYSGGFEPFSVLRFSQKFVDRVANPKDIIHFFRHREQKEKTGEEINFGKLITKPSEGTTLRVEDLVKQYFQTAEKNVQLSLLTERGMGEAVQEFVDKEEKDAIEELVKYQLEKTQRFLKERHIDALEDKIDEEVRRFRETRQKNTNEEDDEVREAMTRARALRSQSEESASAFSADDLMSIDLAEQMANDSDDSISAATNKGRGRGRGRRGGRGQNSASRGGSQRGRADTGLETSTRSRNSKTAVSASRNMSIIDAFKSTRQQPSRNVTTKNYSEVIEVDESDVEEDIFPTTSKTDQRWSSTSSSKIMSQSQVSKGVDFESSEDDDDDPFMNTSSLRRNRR",
  "experiment": "EMSA; increasing Mre11; 1 mM Mg acetate; no Bcl2; EMSA: 25 mM MOPS pH 7.0, 60 mM KCl, 0.2% Tween, 2 mM DTT, 1 mM Mg(CH3COO)2, 37 C 15 min; 10 pM DNA, 10 nM Mre11; 5% native PAGE in TBE at 4 C",
  "conditions": "protein: recombinant; tags: Flag; chain copies: 2; label: 5'-32P on TP423; 34 bp duplex (S3[1-34] with S4[1-34]); 3' overhangs 16 nt (TP423) and 15 nt (TP424)",
  "data": [
    {"binder": "B1", "values": [
      {"measurement": "binding result", "result": "binds"}
    ]}
  ]
}
